Results published in a protein production outcome set (Wang et al. 2014).

Experiment: label from the status in PepcDB records

Protein production, not failed:
MKKRFSNKVLIIGYGSVSQCTLPLLLDKLDIPLENITLIDFEDKSKALKKYTNQGLTFVREKITPENLDQVLSQNMENEGMIIDLSWNIDANEIVKWCHDHDVLYVNTSVEVWDPAEKFLTQSLLEKSLYLRQMRLQELSRDWKDAPTAVVDHGANPGLITHFVKQGLLDIAARTCEDKKVSPEDEQEIALLAKNRDFARLARKLGIRVIHCSERDTQIASRPKEVNEFVGTWSIEGLREEGTAPVEIAWGTHESKLPPLAHIPPYGPKNVILLPQMGVNAWVRSWIPDEEIVGMAIRHGESYGLSKLLTVWEGEKAVYRPTVHYAYMPSHDTLSSLCELRGRNYELQPRLRIMTNEIVSGEDIMGALLMGHSYNSWWTGSALSIEEARSLAPGQNATTLQVAAGIVAAILWMLENPREGVKTPEDLPHDFVLDIARPYLGKFISTPSDWTPLKNRKIFFKESPAVKHDPDPWQFENFIFVGLEHHHHHH

Protein production, failed:
MKKQFLFLLLAVILLSSCATATLSEFPGVGRVKQYDFYSYDIPPAFDGFRIGFASDFHYESRFKRSELNSAVRALKSMHADVLLLGGDYRGKKGGNLDTLFTALSRVYTPYGTFAVMGNHDYGYCYSEVVEAMQKNHVRLMEHKSYKLMKDGQYIIVSGVRNPFDLKKNGDSPSQHFPADDFIILLTHTPDYAEDTDVSNANLVLAGHTHGGQVSLFKKYSPVKHSIYGNRFLTGWKENSKGTPIIITNGLGTSRVDVRLFTPSEVVLVVLHRVEKQKE, MKKRILFVSAIAIQCMMTSMALANDITSQQTAENIPFEKNQLSVRLNGEQYRSAFQIDLSDPNLILTIDTDLIPEEDIDALLPELNDSEEAQVSAFNEPKSLALRIEAKEKAANGDFVGALALLNEAEALTENPAKVLSMKGSVHYKLNQVELAIVSWKKALELDPSLTEVSDIIQWLEK, MKKSKYLTLLSVAALTLLTSGLGSQAVLADTDTAQTTNTSTNTTTDTSKTSTALNHQEAKGQKLTTPVGTLPNAQDAISNKAVLKRVHGYSWKTTPDVSAAGSQKATVVITYTDGTTSEVEVDLEVTGTGCASQNSPVAKTGLTVKVGKSLTARSAISNLSRLRNVDSVTWKQAPSTAKAGTVKGTVLVTYTDKSTDTVDVTVKVSSVVTTKKSVKKSKKKQYVTKTRKIILDRPGKNKTITQKVKLSRTVTTTTTTTKTYTDGKLTKTSKKAKKSYGKWSKGTWKSYKVPAISGYKRSTTKVKAKAVTSKTKNITVKVSYKRVLHKPANAPYYDPADMRAKTGAYYFQSSEKRAYPNLAKYKNVWIRVSILGNRVYVMSGKKVIYTMYSSAGRFEMTNGKYQSDTPRGTFYLKAAYGPSFMSSDGVGARYYMAYYGSDYLFHSVPINNYGSGVYYKGYHYGYGGVGSTAHLTVQGTNPDSLGCIRLTLSDARWLYGQRTSGKLKVGTKVVIKYK, MKKSSILVFLLTYGLFYVSSILFPIDRMWYDALEKPSWTPSGMTIGIVWTVLYGLIALSVAIIYNKYGCKPKTFWFIFLLNYMCNQAFSYFQFSQKDLFLATIDCLLVAVTTLLLIAVSSSLSKVSTWLLIPYFLWATFATYLSWSIYSIN, MKKTTLFVLGLLFNSFLNAVDGISKTDLSSLNLAEDSAPLNHPNAQKLSLKNAWTRVLSNHEGLHAQEYAIKRASKMKLAAKLSFLPQIDLSAFYVYLSNPIKMDFASQKQPGVQKATNQIHQGIQNIQQNIPSQVLTPQIQAGMQGVMQGFGALSSTLEAPLLFSKQNVVIGALSIIYPLYMGGARFTMVRIADLMQKDANEVYRLKKLSTFQELVSVYYGMVLNAEVAETLEEVEKGHYKHFQNALKMQKVGQIARVETLGAQVAYDKAHIASVKAKDVLEVSQLSFNSILSSKDDLVPSSKLEIRTEKNLPDLSFFVSSTLNSYPVLKTLENQIQISKENTKLQIAKFLPQVSFFGSYIMKQNNSVFEDMIPSWFVGVAGRMPILSPTGRIQKYQASKLAELQVSSEQIQAKKNMELLVNKTYKETLSYLKEYKSLLSSVELAKENLKLQEQAFLQGLSTNAQVIDARNTLSSIVVEQKSVAYKYIVSLANLMALSDHIDLFYEFVY, MKKTWKVFLTLVTALVAVVLVACGQGTASKDNKEAELKKVDFILDWTPNTNHTGLYVAKEKGYFKEAGVDVDLKLPPEESSSDLVINGKAPFAVYFQDYMAKKLEKGAGITAVAAIVEHNTSGIISRKSDNVSSPKDLVGKKYGTWNDPTELAMLKTLVESQGGDFEKVEKVPNNDSNSITPIANGVFDTAWIYYGWDGILAKSQGVDANFMYLKDYVKEFDYYSPVIIANNDYLKDNKEEARKVIQAIKKGYQYAMEHPEEAADILIKNAPELKEKRDFVIESQKYLSKEYASDKEKWGQFDAARWNAFYKWDKENGILKEDLTDKGFTNEFVK
